Earlier results as cited in paper PMC8467547.

What was measured:
IFNAR2 (Homo sapiens) = IFNAR2 (Homo sapiens) (UniProt P48551)
IFNAR1 (Homo sapiens) = IFNAR1 (Homo sapiens) (UniProt P17181)
Sequence of UniProt P17181 (P17181 28-436): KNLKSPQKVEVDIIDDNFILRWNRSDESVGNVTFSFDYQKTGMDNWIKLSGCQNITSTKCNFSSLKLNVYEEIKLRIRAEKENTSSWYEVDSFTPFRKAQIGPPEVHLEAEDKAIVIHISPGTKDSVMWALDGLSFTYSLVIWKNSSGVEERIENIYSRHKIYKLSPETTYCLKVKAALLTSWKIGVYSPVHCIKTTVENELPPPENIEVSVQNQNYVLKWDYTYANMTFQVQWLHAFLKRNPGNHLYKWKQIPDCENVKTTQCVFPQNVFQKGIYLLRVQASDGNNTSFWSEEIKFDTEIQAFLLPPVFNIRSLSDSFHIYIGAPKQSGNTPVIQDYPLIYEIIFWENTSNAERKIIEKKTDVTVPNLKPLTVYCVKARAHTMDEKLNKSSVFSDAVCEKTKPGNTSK

Sequence of UniProt P48551 (P48551 27-243): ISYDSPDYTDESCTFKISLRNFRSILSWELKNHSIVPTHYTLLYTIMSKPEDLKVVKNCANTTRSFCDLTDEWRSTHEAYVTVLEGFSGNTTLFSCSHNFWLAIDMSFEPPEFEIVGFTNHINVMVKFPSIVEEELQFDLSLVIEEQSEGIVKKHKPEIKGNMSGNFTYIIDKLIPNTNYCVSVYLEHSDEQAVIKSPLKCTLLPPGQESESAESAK

Kd (IFNAR2 (Homo sapiens)): 0.2 nM | Kd (IFNAR1 (Homo sapiens)): 100 nM
Substance: IFN-beta (from UniProt P01574)
